# From the MegaScale stability set (Tsuboyama et al. 2023)
# B1: EHEE_rd2_0196 (parent)
# chain: TETRTFDSEEEAKKAQKEAEKQGRTVTITRRDDRWEVRFD
# Variants of: B1
# Assay: folding stability dG (cDNA display proteolysis); higher = more stable
# Details: PBS, room temperature
row,Variant,folding stability dG [kcal/mol]
1,TETVTFDSEEEAKKAQKEAEKQGRTVTITRRDDRWEVRFD [R4V],2.99
2,TETSTFDSEEEAKKAQKEAEKQGRTVTITRRDDRWEVRFD [R4S],2.3
3,TETETFDSEEEAKKAQKEAEKQGRTVTITRRDDRWEVRFD [R4E],2.36
4,TETATFDSEEEAKKAQKEAEKQGRTVTITRRDDRWEVRFD [R4A],2.65
5,TETKTFDSEEEAKKAQKEAEKQGRTVTITRRDDRWEVRFD [R4K],2.9
6,TETITFDSEEEAKKAQKEAEKQGRTVTITRRDDRWEVRFD [R4I],3.1
7,TETPTFDSEEEAKKAQKEAEKQGRTVTITRRDDRWEVRFD [R4P],1.25
8,TETFTFDSEEEAKKAQKEAEKQGRTVTITRRDDRWEVRFD [R4F],3.15
9,TETGTFDSEEEAKKAQKEAEKQGRTVTITRRDDRWEVRFD [R4G],1.85
10,TETLTFDSEEEAKKAQKEAEKQGRTVTITRRDDRWEVRFD [R4L],3.43
11,TETNTFDSEEEAKKAQKEAEKQGRTVTITRRDDRWEVRFD [R4N],2.11
12,TETQTFDSEEEAKKAQKEAEKQGRTVTITRRDDRWEVRFD [R4Q],2.93
13,TETMTFDSEEEAKKAQKEAEKQGRTVTITRRDDRWEVRFD [R4M],3.24
14,TETHTFDSEEEAKKAQKEAEKQGRTVTITRRDDRWEVRFD [R4H],2.77
15,TETDTFDSEEEAKKAQKEAEKQGRTVTITRRDDRWEVRFD [R4D],1.6
16,TETYTFDSEEEAKKAQKEAEKQGRTVTITRRDDRWEVRFD [R4Y],3.12
17,TETTTFDSEEEAKKAQKEAEKQGRTVTITRRDDRWEVRFD [R4T],2.54
18,TETWTFDSEEEAKKAQKEAEKQGRTVTITRRDDRWEVRFD [R4W],3.49
19,TETRHFDSEEEAKKAQKEAEKQGRTVTITRRDDRWEVRFD [T5H],2.71
20,TETRGFDSEEEAKKAQKEAEKQGRTVTITRRDDRWEVRFD [T5G],1.73
21,TETRMFDSEEEAKKAQKEAEKQGRTVTITRRDDRWEVRFD [T5M],3.42
22,TETRKFDSEEEAKKAQKEAEKQGRTVTITRRDDRWEVRFD [T5K],2.09
23,TETRYFDSEEEAKKAQKEAEKQGRTVTITRRDDRWEVRFD [T5Y],3.96
24,TETRAFDSEEEAKKAQKEAEKQGRTVTITRRDDRWEVRFD [T5A],2.43
25,TETRNFDSEEEAKKAQKEAEKQGRTVTITRRDDRWEVRFD [T5N],2.3

row,Variant,folding stability dG [kcal/mol]
1,TETRDFDSEEEAKKAQKEAEKQGRTVTITRRDDRWEVRFD [T5D],2.04
2,TETRVFDSEEEAKKAQKEAEKQGRTVTITRRDDRWEVRFD [T5V],3.37
3,TETRLFDSEEEAKKAQKEAEKQGRTVTITRRDDRWEVRFD [T5L],3.46
4,TETRPFDSEEEAKKAQKEAEKQGRTVTITRRDDRWEVRFD [T5P],1.24
5,TETRFFDSEEEAKKAQKEAEKQGRTVTITRRDDRWEVRFD [T5F],3.75
6,TETRSFDSEEEAKKAQKEAEKQGRTVTITRRDDRWEVRFD [T5S],2.81
7,TETREFDSEEEAKKAQKEAEKQGRTVTITRRDDRWEVRFD [T5E],2.57
8,TETRWFDSEEEAKKAQKEAEKQGRTVTITRRDDRWEVRFD [T5W],4.03
9,TETRRFDSEEEAKKAQKEAEKQGRTVTITRRDDRWEVRFD [T5R],2.35
10,TETRCFDSEEEAKKAQKEAEKQGRTVTITRRDDRWEVRFD [T5C],2.5
11,TETRQFDSEEEAKKAQKEAEKQGRTVTITRRDDRWEVRFD [T5Q],2.63
12,TETRIFDSEEEAKKAQKEAEKQGRTVTITRRDDRWEVRFD [T5I],3.42
13,TERRTFDSEEEAKKAQKEAEKQGRTVTITRRDDRWEVRFD [T3R],2.54
14,TEGRTFDSEEEAKKAQKEAEKQGRTVTITRRDDRWEVRFD [T3G],2.17
15,TENRTFDSEEEAKKAQKEAEKQGRTVTITRRDDRWEVRFD [T3N],2.33
16,TEDRTFDSEEEAKKAQKEAEKQGRTVTITRRDDRWEVRFD [T3D],1.93
17,TEYRTFDSEEEAKKAQKEAEKQGRTVTITRRDDRWEVRFD [T3Y],3.11
18,TEPRTFDSEEEAKKAQKEAEKQGRTVTITRRDDRWEVRFD [T3P],2.73
19,TEMRTFDSEEEAKKAQKEAEKQGRTVTITRRDDRWEVRFD [T3M],3.03
20,TECRTFDSEEEAKKAQKEAEKQGRTVTITRRDDRWEVRFD [T3C],3.22
21,TESRTFDSEEEAKKAQKEAEKQGRTVTITRRDDRWEVRFD [T3S],2.62
22,TEIRTFDSEEEAKKAQKEAEKQGRTVTITRRDDRWEVRFD [T3I],3.35
23,TEVRTFDSEEEAKKAQKEAEKQGRTVTITRRDDRWEVRFD [T3V],3.38
24,TEARTFDSEEEAKKAQKEAEKQGRTVTITRRDDRWEVRFD [T3A],2.66
25,TEHRTFDSEEEAKKAQKEAEKQGRTVTITRRDDRWEVRFD [T3H],2.55

row,Variant,folding stability dG [kcal/mol]
1,TEERTFDSEEEAKKAQKEAEKQGRTVTITRRDDRWEVRFD [T3E],2.08
2,TEKRTFDSEEEAKKAQKEAEKQGRTVTITRRDDRWEVRFD [T3K],2.48
3,TELRTFDSEEEAKKAQKEAEKQGRTVTITRRDDRWEVRFD [T3L],3.15
4,TEWRTFDSEEEAKKAQKEAEKQGRTVTITRRDDRWEVRFD [T3W],3.06
5,TEFRTFDSEEEAKKAQKEAEKQGRTVTITRRDDRWEVRFD [T3F],3.2
6,TEQRTFDSEEEAKKAQKEAEKQGRTVTITRRDDRWEVRFD [T3Q],2.46
7,TETRTRDSEEEAKKAQKEAEKQGRTVTITRRDDRWEVRFD [F6R],0.142
8,TETRTEDSEEEAKKAQKEAEKQGRTVTITRRDDRWEVRFD [F6E],0.25
9,TETRTADSEEEAKKAQKEAEKQGRTVTITRRDDRWEVRFD [F6A],0.553
10,TETRTNDSEEEAKKAQKEAEKQGRTVTITRRDDRWEVRFD [F6N],0.174
11,TETRTDDSEEEAKKAQKEAEKQGRTVTITRRDDRWEVRFD [F6D],0.02
12,TETRTSDSEEEAKKAQKEAEKQGRTVTITRRDDRWEVRFD [F6S],0.282
13,TETRTWDSEEEAKKAQKEAEKQGRTVTITRRDDRWEVRFD [F6W],1.28
14,TETRTQDSEEEAKKAQKEAEKQGRTVTITRRDDRWEVRFD [F6Q],0.251
15,TETRTLDSEEEAKKAQKEAEKQGRTVTITRRDDRWEVRFD [F6L],1.22
16,TETRTVDSEEEAKKAQKEAEKQGRTVTITRRDDRWEVRFD [F6V],1.65
17,TETRTGDSEEEAKKAQKEAEKQGRTVTITRRDDRWEVRFD [F6G],0.049
18,TETRTYDSEEEAKKAQKEAEKQGRTVTITRRDDRWEVRFD [F6Y],3.19
19,TETRTMDSEEEAKKAQKEAEKQGRTVTITRRDDRWEVRFD [F6M],1.24
20,TETRTTDSEEEAKKAQKEAEKQGRTVTITRRDDRWEVRFD [F6T],0.546
21,TETRTPDSEEEAKKAQKEAEKQGRTVTITRRDDRWEVRFD [F6P],-0.092
22,TETRTIDSEEEAKKAQKEAEKQGRTVTITRRDDRWEVRFD [F6I],0.565
23,TETRTHDSEEEAKKAQKEAEKQGRTVTITRRDDRWEVRFD [F6H],0.637
24,TETRTKDSEEEAKKAQKEAEKQGRTVTITRRDDRWEVRFD [F6K],0.23
25,TVTRTFDSEEEAKKAQKEAEKQGRTVTITRRDDRWEVRFD [E2V],3.15

row,Variant,folding stability dG [kcal/mol]
1,TRTRTFDSEEEAKKAQKEAEKQGRTVTITRRDDRWEVRFD [E2R],2.89
2,TSTRTFDSEEEAKKAQKEAEKQGRTVTITRRDDRWEVRFD [E2S],2.95
3,TFTRTFDSEEEAKKAQKEAEKQGRTVTITRRDDRWEVRFD [E2F],3.13
4,THTRTFDSEEEAKKAQKEAEKQGRTVTITRRDDRWEVRFD [E2H],3.05
5,TPTRTFDSEEEAKKAQKEAEKQGRTVTITRRDDRWEVRFD [E2P],2.48
6,TDTRTFDSEEEAKKAQKEAEKQGRTVTITRRDDRWEVRFD [E2D],2.71
7,TMTRTFDSEEEAKKAQKEAEKQGRTVTITRRDDRWEVRFD [E2M],2.95
8,TKTRTFDSEEEAKKAQKEAEKQGRTVTITRRDDRWEVRFD [E2K],2.86
9,TTTRTFDSEEEAKKAQKEAEKQGRTVTITRRDDRWEVRFD [E2T],3.11
10,TNTRTFDSEEEAKKAQKEAEKQGRTVTITRRDDRWEVRFD [E2N],2.94
11,TGTRTFDSEEEAKKAQKEAEKQGRTVTITRRDDRWEVRFD [E2G],2.79
12,TLTRTFDSEEEAKKAQKEAEKQGRTVTITRRDDRWEVRFD [E2L],2.98
13,TWTRTFDSEEEAKKAQKEAEKQGRTVTITRRDDRWEVRFD [E2W],3.24
14,TITRTFDSEEEAKKAQKEAEKQGRTVTITRRDDRWEVRFD [E2I],3.23
15,TQTRTFDSEEEAKKAQKEAEKQGRTVTITRRDDRWEVRFD [E2Q],3.03
16,TATRTFDSEEEAKKAQKEAEKQGRTVTITRRDDRWEVRFD [E2A],2.84
17,TYTRTFDSEEEAKKAQKEAEKQGRTVTITRRDDRWEVRFD [E2Y],3.19
18,TETRTFHSEEEAKKAQKEAEKQGRTVTITRRDDRWEVRFD [D7H],2.61
19,TETRTFMSEEEAKKAQKEAEKQGRTVTITRRDDRWEVRFD [D7M],2.82
20,TETRTFGSEEEAKKAQKEAEKQGRTVTITRRDDRWEVRFD [D7G],2.74
21,TETRTFKSEEEAKKAQKEAEKQGRTVTITRRDDRWEVRFD [D7K],2.52
22,TETRTFSSEEEAKKAQKEAEKQGRTVTITRRDDRWEVRFD [D7S],2.84
23,TETRTFFSEEEAKKAQKEAEKQGRTVTITRRDDRWEVRFD [D7F],3.22
24,TETRTFRSEEEAKKAQKEAEKQGRTVTITRRDDRWEVRFD [D7R],2.46
25,TETRTFNSEEEAKKAQKEAEKQGRTVTITRRDDRWEVRFD [D7N],2.75

row,Variant,folding stability dG [kcal/mol]
1,TETRTFQSEEEAKKAQKEAEKQGRTVTITRRDDRWEVRFD [D7Q],2.54
2,TETRTFESEEEAKKAQKEAEKQGRTVTITRRDDRWEVRFD [D7E],2.78
3,TETRTFPSEEEAKKAQKEAEKQGRTVTITRRDDRWEVRFD [D7P],2.58
4,TETRTFASEEEAKKAQKEAEKQGRTVTITRRDDRWEVRFD [D7A],2.92
5,TETRTFISEEEAKKAQKEAEKQGRTVTITRRDDRWEVRFD [D7I],2.46
6,TETRTFLSEEEAKKAQKEAEKQGRTVTITRRDDRWEVRFD [D7L],2.87
7,METRTFDSEEEAKKAQKEAEKQGRTVTITRRDDRWEVRFD [T1M],3.12
8,LETRTFDSEEEAKKAQKEAEKQGRTVTITRRDDRWEVRFD [T1L],3.04
9,KETRTFDSEEEAKKAQKEAEKQGRTVTITRRDDRWEVRFD [T1K],2.76
10,SETRTFDSEEEAKKAQKEAEKQGRTVTITRRDDRWEVRFD [T1S],3.13
11,NETRTFDSEEEAKKAQKEAEKQGRTVTITRRDDRWEVRFD [T1N],2.93
12,FETRTFDSEEEAKKAQKEAEKQGRTVTITRRDDRWEVRFD [T1F],3.38
13,QETRTFDSEEEAKKAQKEAEKQGRTVTITRRDDRWEVRFD [T1Q],2.98
14,RETRTFDSEEEAKKAQKEAEKQGRTVTITRRDDRWEVRFD [T1R],2.81
15,HETRTFDSEEEAKKAQKEAEKQGRTVTITRRDDRWEVRFD [T1H],3.05
16,PETRTFDSEEEAKKAQKEAEKQGRTVTITRRDDRWEVRFD [T1P],3.02
17,CETRTFDSEEEAKKAQKEAEKQGRTVTITRRDDRWEVRFD [T1C],2.81
18,EETRTFDSEEEAKKAQKEAEKQGRTVTITRRDDRWEVRFD [T1E],2.93
19,AETRTFDSEEEAKKAQKEAEKQGRTVTITRRDDRWEVRFD [T1A],3.08
20,DETRTFDSEEEAKKAQKEAEKQGRTVTITRRDDRWEVRFD [T1D],2.95
21,VETRTFDSEEEAKKAQKEAEKQGRTVTITRRDDRWEVRFD [T1V],3.21
22,GETRTFDSEEEAKKAQKEAEKQGRTVTITRRDDRWEVRFD [T1G],2.96
23,WETRTFDSEEEAKKAQKEAEKQGRTVTITRRDDRWEVRFD [T1W],3.67
24,YETRTFDSEEEAKKAQKEAEKQGRTVTITRRDDRWEVRFD [T1Y],3.48
25,IETRTFDSEEEAKKAQKEAEKQGRTVTITRRDDRWEVRFD [T1I],3.08
